Earlier results as cited in patent publication US20200069786A1, “COMPOSITION AND PROCESS FOR PREPARING VACCINE” (TREOS BIO ZRT., priority 2018, published 2020).
Where two headings read alike, the source gives them in different places.

Tested on: TSA
Conditions: cited from earlier work
[1] = TSA expression rate in Cervical cancer
[2] = TSA expression rate in HEAD and NECK
[3] = TSA expression rate in MELANOMA
[4] = TSA expression rate in PROSTATE cancer
[5] = TSA expression rate in BLADDER cancer
[6] = TSA expression rate in Esophageal
[7] = TSA expression rate in GASTRIC cancer
[8] = TSA expression rate in LEUKEMIAS
[9] = TSA expression rate in PEDIATRIC
[10] = TSA expression rate in LUNG cancer

Substance | TSA Expression Rate (ER) (BREAST) [%] | TSA Expression Rate (ER) (OVARIAN) [%] | TSA Expression Rate (ER) (THYROID) [%] | Expression Rate (ER) % (TSA expression rate in CRC) [%] | Expression Rate (ER) % [2] [%] | Expression Rate (ER) % [3] [%] | Expression Rate (ER) % [4] [%] | Expression Rate (ER) % [5] [%] | TSA Expression Rate (ER) (BRAIN) [%] | other results
LDHC | 35 | 43 | 25 | 15 | 0 | 44 | 38 | – | – | TSA Expression Rate (ER) (LUNG): 29%; Expression Rate (ER) % [1]: 83%; Expression Rate (ER) % (TSA expression rate in Kidney): 57%
MAGE-A10 | 34 | 38 | 2 | 3 | 12 | 45 | 10 | 28 | – | TSA Expression Rate (ER) (HCC): 15%; TSA Expression Rate (ER) (LUNG): 24%; TSA Expression Rate (ER) (PANCREATIC): 1%; Expression Rate (ER) % [1]: 0%; Expression Rate (ER) % [6]: 27%; Expression Rate (ER) % [7]: 30%; Expression Rate (ER) % (TSA expression rate in Kidney): 1%; Expression Rate (ER) % [8]: 0%; Expression Rate (ER) % [9]: 33%
MPHOSPH1 | – | – | – | – | – | – | – | 90 | – | –
MSLN | – | – | – | – | – | – | – | – | – | TSA Expression Rate (ER) (PANCREATIC): 96%
MUC-1 | – | – | – | – | – | – | 34 | – | – | –
NKX3.1 | – | – | 0 | – | – | – | 70 | – | – | –
OIP5 | – | – | – | – | 12 | – | – | – | – | Expression Rate (ER) % [7]: 48%
PRAME | 49 | 59 | 60 | 4 | 61 | 90 | 10 | 19 | 56 | TSA Expression Rate (ER) (LUNG): 63%; Expression Rate (ER) % [7]: 21%; Expression Rate (ER) % (TSA expression rate in Kidney): 40%; Expression Rate (ER) % [8]: 23%; Expression Rate (ER) % [9]: 75%
SOX-6 | – | – | – | – | – | – | – | – | 60 | –
SPINLW1 | – | – | – | – | – | – | – | – | 47 | –
SSX-1 | 9 | 2 | 0 | 2 | 40 | 25 | 7 | 7 | 0 | TSA Expression Rate (ER) (HCC): 69%; TSA Expression Rate (ER) (PANCREATIC): 0%; Expression Rate (ER) % [1]: 4%; Expression Rate (ER) % [6]: 0%; Expression Rate (ER) % [7]: 13%; Expression Rate (ER) % (TSA expression rate in Kidney): 0%; Expression Rate (ER) % [8]: 31%; Expression Rate (ER) % [10]: 8%; Expression Rate (ER) % (TSA expression rate in LYMPHOMAS): 6%; Expression Rate (ER) % [9]: 76%
SSX-7 | – | – | – | – | – | – | – | – | 0 | –
SYCE1 | – | – | – | – | – | – | – | – | – | Expression Rate (ER) % [10]: 11%
TDRD4 | – | – | – | – | – | – | – | – | – | TSA Expression Rate (ER) (HCC): 14%
TEX15 | 0 | – | 0 | 0 | 11 | 27 | 13 | 21 | – | TSA Expression Rate (ER) (LUNG): 21%; Expression Rate (ER) % [6]: 20%; Expression Rate (ER) % (TSA expression rate in Kidney): 33%
TSGA10 | 70 | 35 | – | 5 | – | 25 | 15 | 38 | 83 | TSA Expression Rate (ER) (HCC): 20%
WT1 | 7 | 63 | 97 | 91 | – | – | – | – | 81 | TSA Expression Rate (ER) (HCC): 86%; TSA Expression Rate (ER) (PANCREATIC): 72%; Expression Rate (ER) % [1]: 5%; Expression Rate (ER) % [6]: 88%
